{"source": "patent US20120220029", "about": "“MUTANT SOX PROTEINS AND METHODS OF INDUCING PLURIPOTENCY” (Agency for Science, Technology and Research, published 2012)", "binders": {"B1": {"name": "canonical sox/oct (0) (dsDNA)", "DNA 1": "GGCGCGGCATTGTCATGCAAATCGGCGGCG", "DNA 2": "CGCCGCCGATTTGCATGACAATGCCGCGCC"}, "B2": {"name": "order (dsDNA)", "DNA 1": "GGCGCGGATGCAAATCATTGTCCGGCGGCG", "DNA 2": "CGCCGCCGGACAATGATTTGCATCCGCGCC"}, "B3": {"name": "Nanog' compressed (-1) (dsDNA)", "DNA 1": "CTGGACATTGTATGCAAAAGAA", "DNA 2": "TTCTTTTGCATACAATGTCCAG"}, "B4": {"name": "Nanog canonical (dsDNA)", "DNA 1": "CATGGACATTGTAATGCAAAAGAAGCTG", "DNA 2": "CAGCTTCTTTTGCATTACAATGTCCATG"}, "B5": {"name": "compressed sox/oct (-1) (dsDNA)", "DNA 1": "CGGCGCGGCATTGTATGCAAATCGGCGGCG", "DNA 2": "CGCCGCCGATTTGCATACAATGCCGCGCCG"}}, "assay_in_all_cases": "EMSA", "key": {"Oct4 POU domain [1]": {"biological_target": "T1, Oct4 POU domain (Mus musculus, UniProt P20263 P20263:126-289)", "T1 sequence (P20263 126-289, one chain of several)": "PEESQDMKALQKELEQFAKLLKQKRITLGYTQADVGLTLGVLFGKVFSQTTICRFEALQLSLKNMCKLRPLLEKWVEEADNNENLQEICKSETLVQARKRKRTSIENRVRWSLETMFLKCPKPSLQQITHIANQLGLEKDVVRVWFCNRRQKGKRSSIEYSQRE", "settings": "tags: N-terminal MBP tag removed by TEV protease; label: 5'-Cy5"}, "Sox17HMG": {"biological_target": "Sox17HMG (Mus musculus, UniProt Q61473 SEQ:68-136)", "sequence (Q61473 68-136)": "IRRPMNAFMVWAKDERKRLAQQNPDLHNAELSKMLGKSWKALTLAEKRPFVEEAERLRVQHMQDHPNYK", "settings": "label: 5'-Cy5"}, "[2]": {"biological_target": "T2, Sox2HMGs (core HMG)/Oct4POU (Mus musculus, UniProt P48432;P20263 P48432:43-111,P20263:126-289)", "T2 sequence (P48432 43-111, chain 1 of 2)": "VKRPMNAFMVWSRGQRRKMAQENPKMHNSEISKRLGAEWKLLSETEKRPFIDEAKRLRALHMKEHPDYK", "T2 sequence (P20263 126-289, chain 2 of 2)": "as the sequence (P20263 126-289, one chain of several) above", "settings": "label: 5'-Cy5", "description": "(§1) Electrophoretic mobility shift assays: All EMSAs were carried out using double-stranded 5′ Cy5-labeled DNA (Sigma Proligo, see Table 1) (Jauch, R., et al. J. Mol. Biol. (2008) 376(3):758-70). Binding buffer contains 20 mM Tris-HC1 pH 8.0, 50 μM ZnCl₂, 100 mM KCl, 10% glycerol, 2 mM 13-merceptoethanol, 0.1 mg/ml bovine serum albumin (BSA) and 0.1% (v/v) Igepal CA-630. 250nM dsDNA probes were mixed with analyte proteins singly or in combinations in binding buffer and incubated for 1 hr at 4° C. in dark. Samples were loaded into a pre-run 12% (w/v) IX Tris-glycine polyacrylamide gel in 1XTG (25 mM Tris, pH 8.3; 192 mM glycine) buffer to separate different species of bound and unbound probes. The fluorescence was detected using a Typhoon 9140 PhosphorImager (Amersham Biosciences).\n(§2) FIG. 1: EMSAs to assess Sox7, Sox2HMGs and spacer nucleotides. To exclude artifacts that could have been caused by the length difference between the Sox2/Sox17 constructs, the differential assembly of the core Sox2HMG domain (termed Sox2HMGs) was tested. The domain spans the same range of amino acids of the Sox17 construct. The differential assembly of Sox7, another F group Sox protein with strong sequence similarities to Sox17 was also tested. Sox7 and Sox17 had comparably weak Oct4 heterodimerization on canonical elements whereas cooperative binding was observed on the compressed element. Thirdly, the spacer nucleotide of the canonical element on the remaining three possible nucleotides was varied (CATTGT(C/A/T/G)ATGCAAAT). The identity of the spacer nucleotide was found not to have a pronounced impact on the overall dimerization profile of the various Sox protein with Oct4. 50nM of Sox2HMGs, Sox7HMG and Sox17HMG were incubated with canonical elements containing different basebairs at position 7 of the Sox motif (C₁A₂T₃T₄G₅T₆(A/T/C/G)₇; A-D) and on the compressed element (E) in the absence (Lanes 1-3) or presence (Lanes 4-6) of 250 nM Oct4POU."}, "Sox2HMG1/Oct4POU [3]": {"biological_target": "T3, Sox2HMG1/Oct4POU (Mus musculus, UniProt P48432;P20263 P48432:33-141,P20263:126-289)", "T3 sequence (P48432 33-141, chain 1 of 2)": "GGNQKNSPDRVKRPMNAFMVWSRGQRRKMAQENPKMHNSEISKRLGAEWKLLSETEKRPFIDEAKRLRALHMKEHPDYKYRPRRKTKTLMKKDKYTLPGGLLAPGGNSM", "T3 sequence (P20263 126-289, chain 2 of 2)": "as the sequence (P20263 126-289, one chain of several) above", "settings": "label: 5'-Cy5", "description": "as §1\n(§3) FIG. 8: Differential assembly of Sox2HMG and Oct4POU (A) and Sox17HMG and Oct4 (E) on a series of different motif configurations. Motif configurations were systematically designed as outlined in FIG. 1A using 30bp DNA elements containing identical Sox (CATTGTC) and Oct4 (ATGCAAAT) consensus sequences flanked by GC rich sequences. To minimize binding anomalies due to cryptic elements at the periphery or within the spacer region we used idealized motifs (CATTGTC for sox and ATGCAAAT for oct) and introduced G's and C's as spacer and boundary nucleotides. Each DNA element was mixed with individual transcription factor proteins as well as with both Sox2 and Oct4 DBDs in combination (See supplementary information). 250 nM of every cy5-labelled DNA element was incubated with 50 nM Sox2HMG1/Sox17HMG and 250 nM Oct4POU proteins alone and in combination followed by PAGE to assess the formation of ternary Sox/Oct4/DNA complex. The position of the various protein DNA complexes are marked by arrows. The number of spacer basepairs is indicated above and below the gels. X=-1 denotes the compressed and X=0 the canonical elements. The co-occurrence of canonical and compressed motifs within genomic regions co-bound by Sox2 and Oct4 in mouse embryonic stem cells are depicted in (B). […]"}, "Sox2HMG1/Oct4POU [4]": {"biological_target": "T3, Sox2HMG1/Oct4POU", "settings": "label: 5'-Cy5", "description": "as §1\nProfiling of Sox/Oct4 Binding to Differentially Configured Motifs: To assess the preference of Sox2 and Oct4 to physically assemble on differentially configured sox/oct motifs in vitro, electrophoretic mobility shift assays (EMSA) were conducted using purified DNA binding domains (DBDs) of Sox2 and Oct4. The heterodimerization potential of Sox2/Oct4 DBD pairs was screened on a panel of systematically modified sox/oct composite motifs (FIG. 7A). A strong cooperative interaction of Sox2 and Oct4 on the canonical element was observed (x=0, FIG. 8A, lanes 5-7). […]", "remark": "listed apart in the source"}, "Sox2KE HMG/Oct4POU": {"biological_target": "Sox2KE HMG/Oct4POU (Mus musculus, UniProt P48432;P20263 P48432:43-111,P20263:126-289, Sox2 K95E)", "sequence (P48432 43-111, stated change not applied, chain 1 of 2)": "as the sequence (P48432 43-111, chain 1 of 2) above", "sequence (P20263 126-289, stated change not applied, chain 2 of 2)": "as the sequence (P20263 126-289, one chain of several) above", "settings": "label: 5'-Cy5", "description": "(§4) 250nM dsDNA probes were mixed with analyte proteins singly or in combinations in binding buffer and incubated for 1 hr at 4° C. in dark. Samples were loaded into a pre-run 12% (w/v) IX Tris-glycine polyacrylamide gel in 1XTG (25 mM Tris, pH 8.3; 192 mM glycine) buffer to separate different species of bound and unbound probes. The fluorescence was detected using a Typhoon 9140 PhosphorImager (Amersham Biosciences).\n(§5) FIG. 10: (A) Alignment of the amino acid sequence of all mouse Sox proteins. The Sox subfamilies (Bowles, J. et al., Dev. Biol. (2000) 227: 239-55) are indicated to the right. The numbering corresponds to the Sox17 sequence. Alpha helices are marked with a red bar. The FM wedge is indicated with an orange bar below the alignment and further DNA interacting residues are marked by black closed circles. Highly conserved and similar sequences are shaded in black or gray. The position of glutamate and lysine residues distinguishing Sox17 and Sox2 is marked by an arrow. The eight amino acids in helix 3 of Sox2 that were replaced by their corresponding counterparts found in Sox17 to construct the Sox2″¹⁷ protein are colored red. (B) structural model prepared using pymol by using the structural coordinates for Sox17 and the Sox2/Oct1 on DNA. The van-der-Waals surface of the DNA derived from the Sox2/Oct1 structure is shown in light gray. Sox17 (blue) was superimposed onto Sox2 (gray). Oct1 is shown in black. Note that the linker region connecting the POU specific and the POU homedomain is not present in the NMR derived model due to structural disorder. The glutamate (Sox17) and the lysine (Sox2) that were mutated are shown as ball-and-sticks. Note that the lysine exists in two alternative conformations in the NMR model. (C)Point mutations at the Sox/Oct4 interface swap the differential assembly behavior of Sox2 and Sox17 on the canonical versus the compressed element DNA element derived from a functional sox/oct element within the Nanog enhancer were used (Rodda, D. J. et al. J Biol Chem (2005) 280:24731-7). 2 denotes Sox2HMGs, 17: Sox17HMG, 2KE: Sox2KE, 17EK: Sox17EK and 2α17 the replacement of all Sox2 residues in helix 3 that differ from the corresponding Sox17 residues into their Sox17 counterpart. Sox proteins were incubated with DNA individually and in combination with Oct4."}, "Sox17HMG/Oct4POU [5]": {"biological_target": "T4, Sox17HMG/Oct4POU (Mus musculus, UniProt Q61473;P20263 Q61473:68-136,P20263:126-289)", "T4 sequence (Q61473 68-136, chain 1 of 2)": "as the sequence (Q61473 68-136) above", "T4 sequence (P20263 126-289, chain 2 of 2)": "as the sequence (P20263 126-289, one chain of several) above", "settings": "label: 5'-Cy5", "description": "as §4, §5"}, "Sox17EK HMG/Oct4POU": {"biological_target": "Sox17EK HMG/Oct4POU (Mus musculus, UniProt Q61473;P20263 Q61473:68-136,P20263:126-289, Sox17 E122K)", "sequence (Q61473 68-136 E122K, chain 1 of 2)": "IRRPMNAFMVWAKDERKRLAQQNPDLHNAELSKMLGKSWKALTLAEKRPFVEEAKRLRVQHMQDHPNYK", "sequence (P20263 126-289, stated change not applied, chain 2 of 2)": "as the sequence (P20263 126-289, one chain of several) above", "settings": "label: 5'-Cy5", "description": "as §4, §5"}, "[6]": {"biological_target": "T2, Sox2HMGs (core HMG)/Oct4POU", "settings": "label: 5'-Cy5", "description": "as §4, §5", "remark": "listed apart in the source"}, "Oct4 POU domain [7]": {"biological_target": "T1, Oct4 POU domain", "settings": "tags: N-terminal MBP tag removed by TEV protease; label: 5'-Cy5", "description": "as §1\n(§6) FIG. 9: (A) Differential assembly of Sox2/Oct4 and Sox17/Oct4 on the compressed and canonical elements. Proteins were added to 250nM DNA elements in the sequences indicated above the lanes. To distinguish shifts caused by Sox2 and Sox17 a N and C-terminally extended Sox2-HMG (Sox2HMG1) domain was used in these experiments. As a consequence, both, the Sox2/DNA and the Sox2/Oct4/DNA complex, migrate slower than the corresponding Sox17 complexes, allowing us to visualize a Sox2/Oct4 and Sox17/Oct4 DNA complex on the same gel. […]", "remark": "listed apart in the source"}, "[8]": {"biological_target": "Sox2HMG1 (extended HMG domain) (Mus musculus, UniProt P48432 SEQ:33-141)", "sequence (P48432 33-141)": "as the sequence (P48432 33-141, chain 1 of 2) above", "settings": "label: 5'-Cy5", "description": "as §1, §6"}, "Sox7HMG/Oct4POU": {"biological_target": "Sox7HMG/Oct4POU (Mus musculus, UniProt P40646;P20263 P40646:45-113,P20263:126-289)", "sequence (P40646 45-113, chain 1 of 2)": "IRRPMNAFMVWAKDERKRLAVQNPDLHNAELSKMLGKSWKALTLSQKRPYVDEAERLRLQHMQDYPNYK", "sequence (P20263 126-289, chain 2 of 2)": "as the sequence (P20263 126-289, one chain of several) above", "settings": "label: 5'-Cy5", "description": "as §1, §2"}, "Sox17HMG/Oct4POU [9]": {"biological_target": "T4, Sox17HMG/Oct4POU", "settings": "label: 5'-Cy5", "description": "as §1, §3", "remark": "listed apart in the source"}}}
{"binder": "B1", "values": [{"measurement": "binding result", "setting": "Oct4 POU domain [1]", "result": "binds"}, {"measurement": "binding result", "setting": "Sox17HMG", "result": "binds"}, {"measurement": "binding result", "setting": "[2]", "result": "binds"}, {"measurement": "binding result", "setting": "Sox2HMG1/Oct4POU [3]", "result": "binds"}]}
{"binder": "B2", "values": [{"measurement": "binding result", "setting": "Sox2HMG1/Oct4POU [4]", "result": "no binding"}]}
{"binder": "B3", "values": [{"measurement": "binding result", "setting": "Sox2KE HMG/Oct4POU", "result": "binds"}, {"measurement": "binding result", "setting": "Sox17HMG/Oct4POU [5]", "result": "binds"}, {"measurement": "binding result", "setting": "Sox17EK HMG/Oct4POU", "result": "no binding"}]}
{"binder": "B4", "values": [{"measurement": "binding result", "setting": "[6]", "result": "binds"}, {"measurement": "binding result", "setting": "Sox17EK HMG/Oct4POU", "result": "binds"}]}
{"binder": "B5", "values": [{"measurement": "binding result", "setting": "Sox17HMG", "result": "binds"}, {"measurement": "binding result", "setting": "Oct4 POU domain [7]", "result": "binds"}, {"measurement": "binding result", "setting": "[8]", "result": "binds"}, {"measurement": "binding result", "setting": "[2]", "result": "no binding"}, {"measurement": "binding result", "setting": "Sox7HMG/Oct4POU", "result": "binds"}, {"measurement": "binding result", "setting": "Sox2HMG1/Oct4POU [3]", "result": "no binding"}, {"measurement": "binding result", "setting": "Sox17HMG/Oct4POU [9]", "result": "binds"}]}
